According to patent US20200222503A1 (published 2020):

T1: FcRn-His (Example 11) (Mus musculus (Mouse), UniProt Q61559 22-297; P01887 21-119)
T1 construct: copies: 1 + 1
T1 sequence (alpha): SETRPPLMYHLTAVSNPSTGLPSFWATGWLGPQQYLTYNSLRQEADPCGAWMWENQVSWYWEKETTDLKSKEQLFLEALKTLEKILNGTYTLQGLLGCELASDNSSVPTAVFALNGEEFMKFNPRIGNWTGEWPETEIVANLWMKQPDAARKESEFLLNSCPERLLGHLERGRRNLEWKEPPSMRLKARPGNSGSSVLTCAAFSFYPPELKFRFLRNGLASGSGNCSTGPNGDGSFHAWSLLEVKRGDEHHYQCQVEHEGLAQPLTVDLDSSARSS
T1 sequence (beta): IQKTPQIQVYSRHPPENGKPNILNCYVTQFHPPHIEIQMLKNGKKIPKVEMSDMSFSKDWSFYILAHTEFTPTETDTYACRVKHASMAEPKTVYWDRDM

T2: OX40 on HeLa cells (HeLa-OX40) (Homo sapiens (Human), UniProt P43489 29-277)
T2 sequence: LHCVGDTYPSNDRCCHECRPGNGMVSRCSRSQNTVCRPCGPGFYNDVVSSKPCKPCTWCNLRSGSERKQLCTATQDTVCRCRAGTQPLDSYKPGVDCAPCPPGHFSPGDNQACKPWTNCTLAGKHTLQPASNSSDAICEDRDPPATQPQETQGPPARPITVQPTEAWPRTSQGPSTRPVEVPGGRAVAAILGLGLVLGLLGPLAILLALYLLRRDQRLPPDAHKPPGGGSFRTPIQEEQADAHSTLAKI

B1: murine PD-1-Fc-OX40L chimeric protein (Fc fusion, UniProt Q02242 25-169, looked up)
chain: LEVPNGPWRSLTFYPAWLTVSEGANATFTCSLSNWSEDLMLNWNRLSPSNQTEKQAAFCNGLSQPVQDARFQIIQLPNRHDFHMNILDTRRNDSGIYLCGAISLHPKAKIEESPGAELVVTERILETSTRYPSPSPKPEGRFQGMSSSPAKDPPIQRLRGAVTRCEDGQLFISSYKNEYQTMEVQNNSVVIKCDGLYIIYLKGSFFQEVKIDLHFREDHNPISIPMLNDGRRIVFTVVASLAFKDKVYLTVNAPDTLCEHLQINDGELIVVQLTPGYCAPEGSYHSTVNQVPL
notes: extracellular domain; also called mPD-1-Fc-OX40L; not shown: Fc linker of the murine construct is not specified
B2: PD-1_IgG4_OX40L (1) (Fc fusion)
chain: LDSPDRPWNPPTFSPALLVVTEGDNATFTCSFSNTSESFVLNWYRMSPSNQTDKLAAFPEDRSQPGQDCRFRVTQLPNGRDFHMSVVRARRNDSGTYLCGAISLAPKAQIKESLRAELRVTERRAEVPTAHPSPSPRPAGQFQSKYGPPCPSCPAPEFLGGPSVFLFPPKPKDTLMISRTPEVTCVVVDVSQEDPEVQFNWYVDGVEVHNAKTKPREEQFNSTYRVVSVLTVLHQDWLSGKEYKCKVSSKGLPSSIEKTISNATGQPREPQVYTLPPSQEEMTKNQVSLTCLVKGFYPSDIAVEWESNGQPENNYKTTPPVLDSDGSFFLYSRLTVDKSSWQEGNVFSCSVMHEALHNHYTQKSLSLSLGKIEGRMDQVSHRYPRIQSIKVQFTEYKKEKGFILTSQKEDEIMKVQNNSVIINCDGFYLISLKGYFSQEVNISLHYQKDEEPLFQLKKVRSVNSLMVASLTYKDKVYLNVTTDNTSLDDFHVNGGELILIHQNPGEFCVL
B3: murine CD172a(SIRPα)-Fc-CD40L chimeric protein (Fc fusion, UniProt P97797 32-373, looked up)
chain: KELKVTQPEKSVSVAAGDSTVLNCTLTSLLPVGPIRWYRGVGPSRLLIYSFAGEYVPRIRNVSDTTKRNNMDFSIRISNVTPADAGIYYCVKFQKGSSEPDTEIQSGGGTEVYVLAKPSPPEVSGPADRGIPDQKVNFTCKSHGFSPRNITLKWFKDGQELHPLETTVNPSGKNVSYNISSTVRVVLNSMDVNSKVICEVAHITLDRSPLRGIANLSNFIRVSPTVKVTQQSPTSMNQVNLTCRAERFYPEDLQLIWLENGNVSRNDTPKNLTKNTDGTYNYTSLFLVNSSAHREDVVFTCQVKHDQQPAITRNHTVLGFAHSSDQGSMQTFPDNNATHNWNHRRLDKVEEEVNLHEDFVFIKKLKRCNKGEGSLSLLNCEEMRRQFEDLVKDITLNKEEKKENSFEMQRGDEDPQIAAHVVSEANSNAASVLQWAKKGYYTMKSNLVMLENGKQLTVKREGLYYVYTQVTFCSNREPSSQRPFIVGLWLKPSSGSERILLKAANTHSSSQLCEQQSVHLGGVFELQAGASVFVNVTEASQVIHRVGFSSFGLLKL
notes: extracellular domain; also called mCD172a(SIRPα)-Fc-CD40L; not shown: Fc linker of the murine construct is not specified
B4: OX40-His (Example 11) (receptor, not shown: small tags and cut ends)
chain: VTARRLNCVKHTYPSGHKCCRECQPGHGMVSRCDHTRDTLCHPCETGFYNEAVNYDTCKQCTQCNHRSGSELKQNCTPTQDTVCRCRPGTQPRQDSGYKLGVDCVPCPPGHFSPGNNQACKPWTNCTLSGKQTRHPASDSLDAVCEDRSLLATLLWETQRPTFRPTTVQSTTVWPRTSELPSPPTLVTPEGP
B5: recombinant murine CD40 protein (receptor, UniProt P27512 24-193, looked up)
chain: VTCSDKQYLHDGQCCDLCQPGSRLTSHCTALEKTQCHPCDSGEFSAQWNREIRCHQHRHCEPNQGLRVKKEGTAESDTVCTCKEGQHCTSKDCEACAQHTPCIPGFGVMEMATETTDTVCHPCPVGFFSNQSSLFEKCYPWTSCEDKNLEVLQKGTSQTNVICGLKSRMR
notes: also called mCD40

Tests used:
FcRn-His (Example 11) = target: T1, FcRn-His (Example 11); experiment: SPR, BioRad ProteOn XPR 360, His-tagged target on chip
[1] = target: PD-L1 on CHO cells (CHO-PD-L1) (Homo sapiens (Human), UniProt Q9NZQ7 19-290); experiment: FACS on CHO-PD-L1 cells
Chain of PD-L1 on CHO cells (CHO-PD-L1) (Q9NZQ7 19-290 limits assumed, form in doubt): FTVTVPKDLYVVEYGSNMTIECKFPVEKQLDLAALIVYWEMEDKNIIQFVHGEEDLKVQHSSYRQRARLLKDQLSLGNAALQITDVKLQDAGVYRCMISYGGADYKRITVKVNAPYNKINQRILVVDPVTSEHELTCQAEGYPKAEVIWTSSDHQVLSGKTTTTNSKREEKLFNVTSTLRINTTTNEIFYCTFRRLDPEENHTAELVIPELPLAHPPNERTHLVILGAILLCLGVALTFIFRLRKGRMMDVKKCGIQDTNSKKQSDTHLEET

[2] = target: T2, OX40 on HeLa cells (HeLa-OX40); experiment: FACS on HeLa-OX40 cells
[3] = target: T3, murine CD40 on CHOK1 cells (murine, UniProt P27512 20-289); experiment: flow cytometry on CHOK1/mCD40 cells
T3 construct: whole, on cells; also called mCD40; CHOK1/mCD40
T3 sequence (P27512 20-289): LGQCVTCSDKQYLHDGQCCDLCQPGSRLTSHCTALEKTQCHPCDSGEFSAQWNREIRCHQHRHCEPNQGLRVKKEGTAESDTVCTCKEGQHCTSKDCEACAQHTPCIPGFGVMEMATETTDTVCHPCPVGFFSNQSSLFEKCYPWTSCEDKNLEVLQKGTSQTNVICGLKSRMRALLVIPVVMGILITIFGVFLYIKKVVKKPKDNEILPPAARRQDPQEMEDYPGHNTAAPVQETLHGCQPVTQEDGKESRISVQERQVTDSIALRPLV
Description: Cells were collected, washed, and stained with antibodies for the detection of the chimeric protein binding by flow cytometry.

[4] = target: B1; experiment: SPR, BioRad ProteOn XPR 360, His-tagged target on chip
[5] = target: B3; experiment: SPR

B1
Kd (FcRn-His (Example 11)): 55.6 nM | koff (FcRn-His (Example 11)): 0.00262 s⁻¹ | kon (FcRn-His (Example 11)): 47200 M⁻¹ s⁻¹

B2
EC50 [1]: 27 nM | EC50 [2]: 6 nM

B3
EC50 [3]: 20.2 nM

B4
Kd [4]: 9.62 nM

B5
Kd [5]: 0.756 nM
